Reference: patent US5891438

Key:
[1] = molecular target: human tonsillar B cells (CD20+ / CD19+, surface Ig); assay: flow cytometry, dual staining with biotinylated bacterial antigen
[2] = molecular target: human tonsillar B cells (CD20+ / CD19+, surface Ig); assay: flow cytometry, biotinylated mod-SpA on tonsillar B cells; the pair that the inhibitors of Table 5 block

Protein G (from UniProt P19909)
Protein G Binding (share of CD20 tonsillar cells) [1]: 9%

SpA modified by hyperiodination to destroy IgG Fc binding activity (mod-SpA) (from UniProt P38507)
Binding (proportion of the total B cells bound by mod-SpA) [2]: 15

staphylococcal protein A (SpA), purified recombinant form (from UniProt P38507)
SpA Binding (share of CD20 tonsillar cells) [1]: 29%
